The text below walks through data of patent publication US9243034B2, “Glycogen synthase kinase-3 inhibitors” (Ramot at Tel-Aviv University Ltd., priority 2011, dated 2016).

Where no end group is shown, it is not given here. [ ]: non-standard residue; d: D form. The star is where a group is joined. Myristoyl = CCCCCCCCCCCCCC(=O)*; pS = N[C@@H](COP(=O)(O)O)C(=O)O

Test [1] deals with GSK-3β mutants Q89A, N95A, R92A, K94A and F93Y. Kind of test: In vitro kinase assay with other GSK-3β mutants in presence or absence of inhibitor. It counts as biochemical, human. The conditions noted are these: data not shown. An excerpt: (§1) GSK-3β in the pCMV4 vector was used as the template for mutagenesis. Mutations were generated using QuickChange Site Directed Mutagenesis Kit (Stratagene, La Jolla, Calif., USA) according the manufacturer's protocols. Mutations included replacement of D90, K91, R92, F93, K94, V214 to alanine, F93 to tyrosine, and a triple mutation at residues 91-93. All constructs were sequenced to confirm the presence of desired mutations. The sequences of mutagenic oligonucleotides are available from the inventors upon request.
(§2) HEK-293 cells were grown in Dulbecco's Modified Eagle's Medium (DMEM), supplemented with 10% fetal calf serum (FCS), 2 mM glutamine, 100 units/ml penicillin, and 100 μg/ml streptomycin. HEK-293 cells were transiently transfected with indicated constructs, using calcium phosphate method as described [Ilouz et al. (2006) supra]. Cells were lysed in ice-cold buffer G (20 mM Tris-HCl, pH 7.5, 10 mM β-glycerophosphate, 10% glycerol, 1 mM EGTA, 1 mM EDTA, 50 mM NaF, 5 mM sodium pyrophosphate, 0.5 mM orthovanadate, 1 mM benzamidine, 10 μg/ml leupeptin, 5 μg/ml aprotinin, 1 μg/ml pepstatin, and 0.5% Triton X100). Cell extracts were centrifuged for 30 minutes at 15,000×g. […] In all experiments, GSK-3 mutants were expressed at levels at least 5-fold higher than levels of the endogenous GSK-3β as determined by western blot analysis. […]

The target in the next test is T1, F93A mutant GSK-3β (Homo sapiens, UniProt P49841, F93A).
T1 construct: made in house; host or cells: HEK-293 (transient transfection, pCMV4 vector; DE-52 partial purification)
T1 sequence (P49841 1-433 isoform P49841-2 F93A): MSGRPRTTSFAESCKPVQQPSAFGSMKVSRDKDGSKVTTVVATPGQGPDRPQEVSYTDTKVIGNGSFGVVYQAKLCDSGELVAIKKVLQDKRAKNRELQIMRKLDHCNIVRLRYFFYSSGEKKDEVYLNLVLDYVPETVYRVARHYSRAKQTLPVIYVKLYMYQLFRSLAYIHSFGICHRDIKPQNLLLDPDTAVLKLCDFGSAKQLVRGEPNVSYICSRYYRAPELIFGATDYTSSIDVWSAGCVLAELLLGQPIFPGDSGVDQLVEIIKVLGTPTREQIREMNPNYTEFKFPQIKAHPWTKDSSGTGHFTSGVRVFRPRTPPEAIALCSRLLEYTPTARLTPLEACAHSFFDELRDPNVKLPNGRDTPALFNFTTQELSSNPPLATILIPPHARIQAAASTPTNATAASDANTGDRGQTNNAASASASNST
The test can be described thus: In vitro kinase assay with F93A mutant in presence or absence of inhibitor. It counts as biochemical. The conditions noted are these: FIGS. 2B, 2C.
Description: as §1, §2

The target in another test is T2, GSK-3β (Homo sapiens, UniProt P49841).
T2 construct: made in house; host or cells: HEK-293 (transient transfection, pCMV4 vector; DE-52 partial purification)
T2 sequence (P49841 1-433 isoform P49841-2): as the sequence (P49841 1-433 isoform P49841-2 F93A) above, with A93F counted along it
Kind of test: In vitro kinase assay with GSK-3β in the presence of peptide inhibitor. It counts as biochemical. The settings on record: for Inhibition of WT-GSK-3β compared with L803: 250 μM each, FIGS. 3B, 3C. The protocol:
(§3) (0.5 μCi/assay) for 15 minutes.
The ability of each peptide to inhibit GSK-3β was then determined by in vitro kinase assays as described hereinabove.

The subject of another test is pGS-1. The test can be described thus: In vitro kinase assay of GSK-3β mutants, substrate pGS-1. The settings on record: WT set to 100%; mean of 2-3 experiments ± SEM. It counts as biochemical. The protocol:
(§4) HEK-293 cells were grown in Dulbecco's Modified Eagle's Medium (DMEM), supplemented with 10% fetal calf serum (FCS), 2 mM glutamine, 100 units/ml penicillin, and 100 μg/ml streptomycin. HEK-293 cells were transiently transfected with indicated constructs, using calcium phosphate method as described [Ilouz et al. (2006) supra]. Cells were lysed in ice-cold buffer G (20 mM Tris-HCl, pH 7.5, 10 mM β-glycerophosphate, 10% glycerol, 1 mM EGTA, 1 mM EDTA, 50 mM NaF, 5 mM sodium pyrophosphate, 0.5 mM orthovanadate, 1 mM benzamidine, 10 μg/ml leupeptin, 5 μg/ml aprotinin, 1 μg/ml pepstatin, and 0.5% Triton X100). Cell extracts were centrifuged for 30 minutes at 15,000×g. Supernatants were collected, and equal amounts of proteins were boiled with SDS sample buffer and subjected to gel electrophoresis (7.5-12% polyacrylamide gel), transferred to nitrocellulose membranes, and immunoblotted with indicated antibodies. For partial purification, cells were lysed in buffer H (20 mM Tris, pH 7.3, 1 mM EGTA, 1 mM EDTA, 1 mM orthovanadate, 25 μg/ml leupeptin, 25 μg/ml aprotinin, and 25 μg/ml pepstatin A, 500 nM microcystine LR, and 0.25% Triton X100). The lysates were centrifuged at 15,000×g. The resulting supernatants were passed through DE-52 (Whatman, Maidstone, England) mini-columns that were equilibrated with buffer H. GSK-3β proteins were eluted with the same buffer containing 0.02 M NaCl. Equal amounts of proteins were used for in vitro kinase assays. In all experiments, GSK-3 mutants were expressed at levels at least 5-fold higher than levels of the endogenous GSK-3β as determined by western blot analysis.
as §3
(§5) The GSK-3β mutants were partially purified by ion exchange chromatography, and their abilities to phosphorylate peptide substrates were tested in in vitro kinase assays. The substrates were: pIRS-1, p9CREB, and pGS-1, phosphorylated peptides derived from the insulin receptor substrate-1 (IRS-1), cAMP responsive element binding protein (CREB), and glycogen synthase, respectively.
(§6) The results are presented in Table 1, as the percentage of substrate phosphorylation (indicated peptides, pIRS-1, p9CREB and pGS-1) obtained with WTGSK-3β which was set to 100%, and are mean of 2-3 independent experiments each performed in duplicates±SEM.

The next test relates to p9CREB. The test can be described thus: In vitro kinase assay of GSK-3β mutants, substrate p9CREB. It counts as biochemical. The settings on record: WT set to 100%; mean of 2-3 experiments ± SEM. As for the experimental part: as §4, §3, §5, §6
Another test concerns pIRS-1. The test can be described thus: In vitro kinase assay of GSK-3β mutants, substrate pIRS-1. The conditions noted are these: WT set to 100%; mean of 2-3 experiments ± SEM. It counts as biochemical. The protocol: as §4, §3, §5, §6

In the case of KEAPPAPPQS(p)P (KEAPPAPPQ[pS]P) [L803], the “Inhibition of other GSK-3β mutants” value in test [1] is “inhibited all other mutants”. For the same molecule, the “Inhibition of F93A mutated enzyme” value in the test with F93A mutant GSK-3β is recorded as “did not inhibit”.
With “L803-mts: L803 in which myristic acid was attached to its N-terminal, cell permeable, SEQ ID NO:5 (Myristoyl-GKEAPPAPPQSP; not fully specified (residue 11))”, in test [1], the “Inhibition of other GSK-3β mutants” value was “able to inhibit all other mutants”. The “Competition with substrates pIRS-1, p9CREB, pGS-1” value with GSK-3β (purified GSK-3β, 100 μM, FIG. 2A) is on record as “competes with various substrates”. Further, the “Inhibition of F93A mutated enzyme” value with F93A mutant GSK-3β was “did not inhibit”.
Consider “Lys-Ala-Ala-Pro-Pro-Ala-Pro-Pro-Gln-phosphorylated Ser-Pro [PE2A]”, for which, on GSK-3β, the “Inhibition of WT-GSK-3β compared with L803” value was “slightly impaired”.
As to “Lys-Glu-Ala-Pro-Pro-Ala-Pro-Pro-Ala-phosphorylated Ser-Pro [PQ9A]”, the “Increase of inhibition relative to L803” value on GSK-3β (250 μM, FIG. 3B) is reported as “about two-fold”.
With “Lys-Glu-Ala-Pro-Pro-Ala-Pro-Pro-Pro-phosphorylated Ser-Pro [PQ9P]”, on GSK-3β (L803, PQ9A and PQ9P compared, FIG. 5), the “Inhibition activity, dose-response comparative plots” value is reported as “enhanced inhibition activity”.
Regarding “PQ9R: L803 variant, Gln 9 replaced with arginine, SEQ ID NO:14 (KEAPPAPPRSP; PQ9R synthetic peptide)”, the “Inhibition of WT-GSK-3β compared with L803” value in the test with GSK-3β is reported as “non-inhibitory”.
“PQ9Y: L803 variant, Gln 9 replaced with tyrosine, SEQ ID NO:15 (KEAPPAPPYSP; PQ9Y synthetic peptide)”: the “Inhibition of WT-GSK-3β compared with L803” value in the test with GSK-3β is on record as “non-inhibitory”.

B1: R92A: GSK-3β mutant, R92 replaced by alanine, SEQ ID NO:8 (protein)
chain: MSGRPRTTSFAESCKPVQQPSAFGSMKVSRDKDGSKVTTVVATPGQGPDRPQEVSYTDTKVIGNGSFGVVYQAKLCDSGELVAIKKVLQDKAFKNRELQIMRKLDHCNIVRLRYFFYSSGEKKDEVYLNLVLDYVPETVYRVARHYSRAKQTLPVIYVKLYMYQLFRSLAYIHSFGICHRDIKPQNLLLDPDTAVLKLCDFGSAKQLVRGEPNVSYICSRYYRAPELIFGATDYTSSIDVWSAGCVLAELLLGQPIFPGDSGVDQLVEIIKVLGTPTREQIREMNPNYTEFKFPQIKAHPWTKDSSGTGHFTSGVRVFRPRTPPEAIALCSRLLEYTPTARLTPLEACAHSFFDELRDPNVKLPNGRDTPALFNFTTQELSSNPPLATILIPPHARIQAAASTPTNATAASDANTGDRGQTNNAASASASNST
modifications: GSK-3 beta, R92A mutant
Consider B1, for which the “Substrate phosphorylation (% of WTGSK-3β), pGS-1” value in the test on pGS-1 is 41 ± 14 % of WTGSK-3β. Moreover, in the test on p9CREB, the “Substrate phosphorylation (% of WTGSK-3β), p9CREB” value is 49 ± 19 % of WTGSK-3β. Further, the “Substrate phosphorylation (% of WTGSK-3β), pIRS-1” value in the test on pIRS-1 was 60 ± 3 % of WTGSK-3β.

B2: D90A: GSK-3β mutant, D90 replaced by alanine, SEQ ID NO:6 (protein)
chain: MSGRPRTTSFAESCKPVQQPSAFGSMKVSRDKDGSKVTTVVATPGQGPDRPQEVSYTDTKVIGNGSFGVVYQAKLCDSGELVAIKKVLQAKRFKNRELQIMRKLDHCNIVRLRYFFYSSGEKKDEVYLNLVLDYVPETVYRVARHYSRAKQTLPVIYVKLYMYQLFRSLAYIHSFGICHRDIKPQNLLLDPDTAVLKLCDFGSAKQLVRGEPNVSYICSRYYRAPELIFGATDYTSSIDVWSAGCVLAELLLGQPIFPGDSGVDQLVEIIKVLGTPTREQIREMNPNYTEFKFPQIKAHPWTKDSSGTGHFTSGVRVFRPRTPPEAIALCSRLLEYTPTARLTPLEACAHSFFDELRDPNVKLPNGRDTPALFNFTTQELSSNPPLATILIPPHARIQAAASTPTNATAASDANTGDRGQTNNAASASASNST
modifications: GSK-3 beta, D90A mutant
Consider B2, for which the “Substrate phosphorylation (% of WTGSK-3β), pGS-1” value in the test with pGS-1 is listed as 83 ± 2 % of WTGSK-3β. Also, the “Substrate phosphorylation (% of WTGSK-3β), p9CREB” value with p9CREB was 92 ± 21 % of WTGSK-3β. Further, the “Substrate phosphorylation (% of WTGSK-3β), pIRS-1” value in the test on pIRS-1 was 88 ± 15 % of WTGSK-3β.

B3: K91A: GSK-3β mutant, K91 replaced by alanine, SEQ ID NO:7 (protein)
chain: MSGRPRTTSFAESCKPVQQPSAFGSMKVSRDKDGSKVTTVVATPGQGPDRPQEVSYTDTKVIGNGSFGVVYQAKLCDSGELVAIKKVLQDARFKNRELQIMRKLDHCNIVRLRYFFYSSGEKKDEVYLNLVLDYVPETVYRVARHYSRAKQTLPVIYVKLYMYQLFRSLAYIHSFGICHRDIKPQNLLLDPDTAVLKLCDFGSAKQLVRGEPNVSYICSRYYRAPELIFGATDYTSSIDVWSAGCVLAELLLGQPIFPGDSGVDQLVEIIKVLGTPTREQIREMNPNYTEFKFPQIKAHPWTKDSSGTGHFTSGVRVFRPRTPPEAIALCSRLLEYTPTARLTPLEACAHSFFDELRDPNVKLPNGRDTPALFNFTTQELSSNPPLATILIPPHARIQAAASTPTNATAASDANTGDRGQTNNAASASASNST
modifications: GSK-3 beta, K91A mutant
Regarding B3, in the test on pGS-1, the “Substrate phosphorylation (% of WTGSK-3β), pGS-1” value is given as 119 ± 5 % of WTGSK-3β. Further, the “Substrate phosphorylation (% of WTGSK-3β), p9CREB” value in the test on p9CREB is 161 ± 5 % of WTGSK-3β. In addition, the “Substrate phosphorylation (% of WTGSK-3β), pIRS-1” value in the test with pIRS-1 is given as 140 ± 18 % of WTGSK-3β.

B4: K94A: GSK-3β mutant, K94 replaced by alanine, SEQ ID NO:10 (protein)
chain: MSGRPRTTSFAESCKPVQQPSAFGSMKVSRDKDGSKVTTVVATPGQGPDRPQEVSYTDTKVIGNGSFGVVYQAKLCDSGELVAIKKVLQDKRFANRELQIMRKLDHCNIVRLRYFFYSSGEKKDEVYLNLVLDYVPETVYRVARHYSRAKQTLPVIYVKLYMYQLFRSLAYIHSFGICHRDIKPQNLLLDPDTAVLKLCDFGSAKQLVRGEPNVSYICSRYYRAPELIFGATDYTSSIDVWSAGCVLAELLLGQPIFPGDSGVDQLVEIIKVLGTPTREQIREMNPNYTEFKFPQIKAHPWTKDSSGTGHFTSGVRVFRPRTPPEAIALCSRLLEYTPTARLTPLEACAHSFFDELRDPNVKLPNGRDTPALFNFTTQELSSNPPLATILIPPHARIQAAASTPTNATAASDANTGDRGQTNNAASASASNST
modifications: GSK-3 beta, K94A mutant
For the molecule B4, the “Substrate phosphorylation (% of WTGSK-3β), pGS-1” value in the test on pGS-1 is 19 ± 14 % of WTGSK-3β. The “Substrate phosphorylation (% of WTGSK-3β), p9CREB” value with p9CREB was 71 ± 4 % of WTGSK-3β. In addition, the “Substrate phosphorylation (% of WTGSK-3β), pIRS-1” value in the test on pIRS-1 is reported as 52 ± 19 % of WTGSK-3β.
